Laboratory results: the DeepSol protein solubility set

experiment: soluble on expression in E. coli; label from the status in PepcDB or PDB records

| Sequence | soluble on expression in E. coli |
| --- | --- |
| MFHLRTCAAKLRPLTASQTVKTFSQNRPAAARTFQQIRCYSAPVAAEPFLSGTSSNYVEEMYCAWLENPKSVHKSWDIFFRNTNAGAPPGTAYQSPLPLSRGSLAAVAHAQSLVEAQPNVDKLVEDHLAVQSLIRAYQIRGHHVAQLDPLGILDADLDSSVPADIISSTDKLGFYGLDESDLDKVFHLPTTTFIGGQESALPLREIIRRLEMAYCQHIGVEFMFINDLEQCQWIRQKFETPGIMQFTNEEKRTLLARLVRSTRFEEFLQRKWSSEKRFGLEGCEVLIPALKTIIDKSSENGVDYVIMGMPHRGRLNVLANVIRKELEQIFCQFDSKLEAADEGSGDVKYHLGMYHRRINRVTDRNITLSLVANPSHLEAADPVVMGKTKAEQFYCGDTEGKKVMSILLHGDAAFAGQGIVYETFHLSDLPSYTTHGTVHVVVNNQIGFTTDPRMARSSPYPTDVARVVNAPIFHVNSDDPEAVMYVCKVAAEWRSTFHKDVVVDLVCYRRNGHNEMDEPMFTQPLMYKQIRKQKPVLQKYAELLVSQGVVNQPEYEEEISKYDKICEEAFARSKDEKILHIKHWLDSPWPGFFTLDGQPRSMSCPSTGLTEDILTHIGNVASSVPVENFTIHGGLSRILKTRGEMVKNRTVDWALAEYMAFGSLLKEGIHIRLSGQDVERGTFSHRHHVLHDQNVDKRTCIPMNHLWPNQAPYTVCNSSLSEYGVLGFEAGLRMASPNALVLWEAQFGDFHNTAQCIIDQFICPGQAKWVRQNGIVLLLPHGMEGMGPEHSSARPERFLQMCNDDPDVLPDLKEANFDINQLYDCNWVVVNCSTPGNFFHVLRRQILLPFRKPLIIFTPKSLLRHPEARSSFDEMLPGTHFQRVIPEDGPAAQNPENVKRLLFCTGKVYYDLTRERKARDMVGQVAITRIEQLSPFPFDLLLKEVQKYPNAELAWCQEEHKNQGYYDYVKPRLRTTISRAKPVWYAGRNPAAAPATGNKKTH | soluble |
| RVAYIQIIEPDNLIKQGDLRSIRVKSIPSARGIISDRNGEPLAVSVPVEAVWADPATIFKENALSQKQNWYALADVLGVDRQGLIDKIKRNEKRRFIYLQRQVSPAMANYIRELKLPGIGLKSESRRYYPAGEVSAHLVGVTGIDGHGLEGVERSYDEWLTGEEGKKTIRKDRYGRVVENIAWQDKQEGKSLQLTIDQRLQAIAYRAIKQAVADHRATSGSVVMLDVKTGAVLAMVNAPSYNPNNRTDWQSYKMRNRVITDSMEPGSTIKPFVILAALENGVADKDTIVDTGNGVLRLGGSRVRDVSWVGKASLSMILKKSSNIGVTKLAMQMPVEALLGLYSSVGFGELSGLNLVGEVTGIFPTRTRWSPIERATIA | not soluble |
| MNALTALSPLDGRYASKCDALRPFLSEFGLIHARVTVEVRWLQALSNHAGIIEVAPFSTETNAALDSIVANFSEDDANRIKEIERTTNHDVKAVEYFLKEKIAGLDELKNAGEFIHFACTSEDINNLSHALMLKNGREVLVSSMKQILNAIAALATTHAEQPMLSRTHGQTASPTTLGKEMANVAYRLARQIKQFENVELLGKINGAVGNYNAHLSAYPDIDWAAHSQAFVESLGLTFNPYTTQIEPHDYMAELFDALRRYNTILIDFNRDVWGYISLGYFKQKLKDGEVGSSTMPHKVNPIDFENSEGNLGIANAVLGHLGEKLPVSRWQRDLTDSTVLRNMGVGFAQSLIAFDACLKGIGKLELNAARLAEDLNQAQEVLAEPIQTVMRRYNVEKPYEKLKALTRGQAMTRDMMVNFVNGDELSQVPAEERARLAEMTPASYTGNAADQAKQINDLINKI | not soluble |
| MGFLKGKKGLIVGVANNKSIAYGIAQSCFNQGATLAFTYLNESLEKRVRPIAQELNSPYVYELDVSKEEHFKSLYNSVKKDLGSLDFIVHSVAFAPKEALEGSLLETSKSAFNTAMEISVYSLIELTNTLKPLLNNGASVLTLSYLGSTKYMAHYNVMGLAKAALESAVRYLAVDLGKHHIRVNALSAGPIRTLASSGIADFRMILKWNEINAPLRKNVSLEEVGNAGMYLLSSLSSGVSGEVHFVDAGYHVMGMGAVEEKDNKATLLWDLHKEQ | soluble |
| MKVIKGLTAGLIFLFLCACGGQQIKDPLNYEVEPFTFQNQDGKNVSLESLKGEVWLADFIFTNCETICPPMTAHMTDLQKKLKAGNIDVRIISFSVDPENDKPKQLKKFAANYPLSFDNWDFLTGYSQSEIEEFALKSFKAIVKKPEGEDQVIHQSSFYLVGPDGKVLKDYNGVENTPYDDIISDVKSASTLKLEHHHHHH | not soluble |
| MSLRQIRTVIQYQTVRYDILPLSPVSRNRLAQVKRKILVLDLDETLIHSHHDGVLRPTVRPGTPPDFILKVVIDKHPVRFFVHKRPHVDFFLEVVSQWYELVVFTASMEIYGSAVADKLDNSRSILKRRYYRQHCTLELGSYIKDLSVVHSDLSSIVILDNSPGAYRSHPDNAIPIKSWFSDPSDTALLNLLPMLDALRFTADVRSVLSRNLHQHRLWEGHHHHHH | not soluble |
| MGSDKIHHHHHHMPKMGELTLTSVDEFDFRLLIKALGKGEKGSRALTFDEACLLLEGFAKGKATRAQMASAMMLMRVRGETTEEISGMVAGLRRTVDKDWHSLEVDIDWPVYAGKREQLPWLLLVAKLLAKQGVRVMLHGDSQALPHRRHVESCLASLNIACCTTPQMAKAALHSDNIVYVCAGDLAPVLDECRQLHQELGLRSLIQTAARCMNPTNAPISLRSYFHPGLDTVHQGICEILFEKSEYHAGSVAIFKGLQGETECNPRVATTITVVNGQTDNIAVSSLSIPTLLEGFSGAKVGQAELSSDILALLWREQEPFSADALTTLMSRTMIEQALSSMTATLAAVLLLLSRKSAMTEPNTTAIITTEQAVNLSQQCWTNRFNSTDCPLKQWRNRELLCAV | not soluble |
| HYTSVPNIMKVIKPLFLDKLNQSFLDAYDDYTKLENLLTRIGKIKFFDPACGSGNFLIITYKELRRMEINIIKRLQELLGEYLYVPSVTLSQFYGIEIEDFAHDVAKLSLWIAEHQMNEELKNEVHNAVRPTLPLHTAGDIRCANAIRVEWTEVCPAQGSEEVYVFGNPPYLGSKKQNKEHKSDMLSIFGKVKNGKMLDYISAWFYFGAKYASTTNAKVAFVSTNSVTQGEQVSILWNELFKFGI | not soluble |
| MGSDKIHHHHHHMNWSQIISLVSAGNYMEVEKILQDYPYIVDMADHLREQKLKVIANLDTYVKRTMDSVEKLGGHAYLAKDKDEARKIIGDLVGEKKTVVFSKTNVAYEIGLREFLQERNNEVWETDLGEYLVQISRGWPTHIVAPALDMTREEAAKAVKKIDPSINENSKIEDIVAAVRKFLMSKYVKADVGITGANAVAADSGSVALVENEGNIRIDTVMPPMHIAVTGIDKIVPTMRDALDEVMVQAAYAGIFPPTYINVTSGPSSTADIELRRVSPATGPKDFHLVLIDNGRLEASKNEDLKEALLCIKCGRCYFSCPIYRTLGKEWISTKSPYNGPTGVMWNYITNKDPWPASYCVHSGGCKEVCPMKINIPEVIKYIKFIGSKQVGK | not soluble |
| MKPLPDYNHSVVEQLNALTAAGTLQADAAQLGVAAHLDRILADLKARKPARKKSALGWMFARKAGPAAFVKGLYVHGSVGRGKTMLMDMFYEMAPVSSKRRCHFHEFMADVHNRVHTHRQKLKNGETKQADPIPPVAAQLLAEAELLCFDEFTVTDIADAMILARLFSELFANGCTLVTTSNVVPDNLYKDGLNRGLFLPFVDLLKKYVEVVTLDSPTDYRMEKLESLPVYITPLDGSADQAMDMAWRHMTAGHLVAPTEIPMKGRSILVPRRQRPGCPFFLFRPLRKAARSFRLSRHRQSFRYGLHRSHSASQCRQALEHHHHHH | soluble |
| MATFVRNAWYVAALPEELSEKPLGRTILDTPLALYRQPDGVVAALLDICPHRFAPLSDGILVNGHLQCPYHGLEFDGGGQCVHNPHGNGARPASLNVRSFPVVERDALIWIWPGDPALADPGAIPDFGCRVDPAYRTVGGYGHVDCNYKLLVDNLMDLGHAQYVHRANAQTDAFDRLEREVIVGDGEIQALMKIPGGTPSVLMAKFLRGANTPVDAWNDIRWNKVSAMLNFIAVAPEGTPKEQSIHSRGTHILTPETEASCHYFFGSSRNFGIDDPEMDGVLRSWQAQALVKEDKVVVEAIERRRAYVEANGIRPAMLSCDEAAVRVSREIEKLEQLEAARLEHHHHHH | soluble |
| NFMLTQPHSVSESPGKTVTISCTRSSGSIASYYVQWYQQRPGSSPTTVIYEDSQRPSGVPDRFSGSIDSSSNSASLTISGLKTEDEADYYCQSYDSSNVVFGGGTKLTVLGQPKAAPSVTLFPPSSEELQANKATLVCLISDFYPGAVTVAWKADSSPVKAGVETTTPSKQSNNKYAASSYLSLTPEQWKSHRSYSCQVTHEGSTVEKTVAPTECS | soluble |
| MGSDKIHHHHHHMKRNTAQLKEKLIQTGVEEIKKNGLDQLSLRTIAKNCGVTHGTPYRHFKSKEDYLRVVLTRLSTFLNQEIAQGIDQKVSARDQLAQMGFNLITFTKRYPYFFEALFIKFPFKYMKITQETIVLDSDLPGFDKFKRIVFDLRKEESFTNSEAETLFHFWSFISGLAVLANSPIGRDLDNQAIHTTINHMLDIYIKGEQT | not soluble |
| MSLQQALINFYYQFHTKQHYFLCHDILEDAWKAENNYSKQDAVVSLILFATACYHYRRNNLKGAYKSFNKSKEIIQNAKDRDALYLNLNDYQLLIEQQIAKLNAAKPFSSVILPITPVFERIIKANYPDYDYNQETATDPFIVDHHMRRDRSEVIAAKEEAIQLRKHRRNEGHHHHHH | soluble |
| MKFLFIVQGEGRGHLTQAITLEEILRRNGHEVVEVLVGKSSSRRLPGFFNRNIHAPVKRFVSPNFLPTPANKRVSLMRSVAYNLVKLPVYINSINYIRQRIEASGADRVINFYELLTGLTYFLFRPSVPQICIGHQYLFLHKSFEFPKADKVSLALLKFFTVLTSLGAKERLALSFRHMKDDPQNHIRVIPPLLRREVTLHEPYSGDYIHGYMVNAGFSENVMKWHRQHPGIPLRFFWDKWEEEPVKRVDNTLSFYQLDDVEFLRQMAGCKAYASTAGFESVCEAMYLGKPILMVPAHIEQDCNAYDAEKSGAGIISSDFNLQQLLEFAKDYHPNRDFVYWVRGAEYTLLNLLESDSSNYQQVLFNEMYLVEEFI | not soluble |
| MGSDKIHHHHHHMTRRAWTLLDGGMGRELKRIGAPFRQPEWSALALFEAPEYVTQVHRAFIAAGARVITTNSYAVVPFHIGEERFARSGRALAELSGRLARGAADEAGASVQVAGSLPPALGSYRPDLFDPARSQAIHRELICGLTPHVDFWLAETQSSLAEARAVHAALDGDGKPLWLSFTLLDPDTEHAVPLLRSGESVQQAVLLALELGASALLFNCSQPESMGAALRSARQVLKQEARELALGVYANAFPPVREDAQANDTLLDIRADLGPEAYLQWAQQWVEEGADIVGGCCGIGPEHIARLDEHLQACKQGME | not soluble |
| SPLHWLQWERGGVGSDQDLGCHWLPLPTGSDGGDAVEYNPNLLDDPQWPCGKHKRVLIFASYMTTVIEYVKPADLKKDMNETFREKFPHIKLTLSKIRSLKREMRNLSEECSLEPVTVSMAYVYFEKLVLQGKLNKQNRKLCAGACVLLAAKISSDLRKSEVKQLIDKLEERFRFNRKDLIGFEFTVLVALELALYLPENQVLPHYRRLTQQF | not soluble |
| MNEIKNLKQYSKAAERFEGAHLLCPGCAHGMIVREVLNATDDPLILSSATGCLEVSTAVYPYTSWDVPWIHIGFENSSTAVAGAEAMYKALERKGKLYSEKKPKFVAFGGDGSTYDIGFQYISGCFERGHNMTYICLDNEVYANTGGQRSGSTPIGASTTTTPAGRVSYGKKDKKKDILQIMAAHGAPYVAQVAPNKWKDMAKKLKMALETEGPTFINAMSACTTEWKFESNLTVEVSDLAVDSLVFPLYEIINGTELNITYRPKNIVPVRDYLAAQGRFKHLFKKENEHIIEQWQKEVDARWVYLQKREEARV | not soluble |
